Experimental data reported in paper PMC11008285 (Cell reports, 2024).

Biological target: the molecule itself

B1: full-length CARD9 (natural protein, UniProt Q9H257 1-536, looked up)
chain: MSDYENDDECWSVLEGFRVTLTSVIDPSRITPYLRQCKVLNPDDEEQVLSDPNLVIRKRKVGVLLDILQRTGHKGYVAFLESLELYYPQLYKKVTGKEPARVFSMIIDASGESGLTQLLMTEVMKLQKKVQDLTALLSSKDDFIKELRVKDSLLRKHQERVQRLKEECEAGSRELKRCKEENYDLAMRLAHQSEEKGAALMRNRDLQLEIDQLKHSLMKAEDDCKVERKHTLKLRHAMEQRPSQELLWELQQEKALLQARVQELEASVQEGKLDRSSPYIQVLEEDWRQALRDHQEQANTIFSLRKDLRQGEARRLRCMEEKEMFELQCLALRKDSKMYKDRIEAILLQMEEVAIERDQAIATREELHAQHARGLQEKDALRKQVRELGEKADELQLQVFQCEAQLLAVEGRLRRQQLETLVLSSDLEDGSPRRSQELSLPQDLEDTQLSDKGCLAGGGSPKQPFAALHQEQVLRNPHDAGLSSGEPPEKERRRLKESFENYRRKRALRKMQKGWRQGEEDRENTTGSDNTDTEGS
stoichiometry N: 4
